The source of these data is publication PMC10368991, “LolA and LolB from the plant-pathogen Xanthomonas campestris forms a stable heterodimeric complex in the absence of lipoprotein” (Frontiers in Microbiology, 2023).

Usually Kd stands for the free concentration of one partner at which half of the binding sites on the other are occupied at equilibrium, for simple one-to-one binding. A lower Kd goes with tighter binding. The stoichiometry N is the number of molecules, sites or subunits per partner or assembly.

This assay concerns the target T1, Xanthomonas campestris pv. campestris (Xcc) LolB, periplasmic variant (Xanthomonas campestris pv. campestris …).
T1 chain: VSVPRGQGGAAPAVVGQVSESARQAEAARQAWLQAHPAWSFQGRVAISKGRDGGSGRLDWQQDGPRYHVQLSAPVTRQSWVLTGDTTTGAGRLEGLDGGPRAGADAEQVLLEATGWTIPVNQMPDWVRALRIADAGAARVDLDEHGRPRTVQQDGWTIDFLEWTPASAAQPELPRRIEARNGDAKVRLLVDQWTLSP
The experiment in a line: ITC; LolA 1 mM in the syringe, LolB 0.1 (unit inferred) in the cell; 25.0 °C; 20 mM TRIS-HCl pH 7.8, 150 mM NaCl, 5% glycerol; 1:1 binding model; triplicate. The conditions noted are these: both partners purified. For orientation: Isothermal titration calorimetry measures the heat released or taken up as one component is titrated into another.

B1: Xanthomonas campestris pv. campestris (Xcc) LolA (natural protein)
chain: GARQELDTFTRGLKGLDGQFSQRVTDANGRVKENSSGRVALATPRQFRWEYAKPYKQLIVADGKKVWVFDPDLEQVTVRAQGSEEQNSPLVALIDPTRLDKQYDVSEEAAPRDGLQWLSLTPKVDTDASFQMASLGFGKDGLAKMEVVDAVGQRTAISFSGWKRNPAFAADTFRYTPGKGVDVVGDAQ
Turning to B1, binding was put at a Kd of 14.6 ± 1 µM, the dH is -1.63 ± 0.03 kcal/mol and the “stoichiometry N” value came to 0.96 ± 0.04.
